PMC3215742

How the values were obtained:
[1] = biological target: Renilla luciferase (RLuc)-fused tetherin (human) (UniProt Q10589)
[2] = biological target: Renilla luciferase (RLuc)-fused tetherin (human) (UniProt Q10589); test: FRET or BRET; BRET in HEK293T cells cotransfected with RLuc-tetherin and Vpu-eYFP (or eYFP alone); media with 10 µM BIT225 or DMSO from 6 h after transfection; cells collected 48 h post-transfection, washed in PBS; coelenterazine H 5 µM; Synergy 4 plate reader

Chain of UniProt Q10589 (Q10589 1-161): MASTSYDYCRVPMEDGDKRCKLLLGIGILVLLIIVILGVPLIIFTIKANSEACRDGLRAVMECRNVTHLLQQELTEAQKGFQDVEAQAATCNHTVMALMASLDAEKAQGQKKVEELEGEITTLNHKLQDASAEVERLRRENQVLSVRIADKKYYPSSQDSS

enhanced yellow fluorescent protein (eYFP)-fused Vpu (from UniProt P05919 1-82) (natural protein)
tetherin cell surface expression (flow cytometry) in wt infected CEM-SS cells compared to uninfected populations; not affected by 10 µM BIT225 [1]: 75%
tetherin cell surface expression (flow cytometry) in wt infected SupT1-tetherin^pos cells compared to uninfected controls; not affected by 10 µM BIT225 [1]: 70%
BRET signal (DMSO, without BIT225) [2]: 52
BRET signal (with 10 µM BIT225) [2]: 51
